The target of assay [1] is T1, rHuman CD44/Fc Chimera, CF (R&D Systems Cat#3660-CD) (human, UniProt P16070 21-220).
T1 construct: Bought Fc chimera; Fc part of the bought chimera not given
The assay can be described thus: MSD ECL multi-spot, Fab 0.74 uM, blank 692.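 Note: blank spot per well as comparator with Hit at signal to blank ratio of 4 or more.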

Assay [2] addresses T2, Recombinant Human DLL4 (R&D Systems Cat#1506-D4/CF) (human, UniProt Q9NR61 27-524).
T2 construct: Bought recombinant protein; also called rHuman DLL4; delta-like protein 4
The assay can be described thus: MSD ECL multi-spot, Fab 0.74 uM, blank 692.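 Note: blank spot per well as comparator with Hit at signal to blank ratio of 4 or more.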

Assay [3] addresses T3, rHuman HGF R/c-MET/Fc Chimera, CF (R&D Systems Cat#358-MT/CF) (human, UniProt P08581 25-932).
T3 construct: Bought Fc chimera; also called HGF R/Fc; Fc part of the bought chimera not given
Nature of the assay: MSD ECL multi-spot, Fab 0.74 uM, blank 692.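 Note: blank spot per well as comparator with Hit at signal to blank ratio of 4 or more.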

Assay [4] has as its target T4, rHuman Erythropoietin R/Fc Chimera, CF (R&D Systems Cat#963-ER) (human, UniProt P19235 25-250).
T4 construct: Bought Fc chimera; also called EPO R/Fc; EPOR; Fc part of the bought chimera not given
T4 sequence: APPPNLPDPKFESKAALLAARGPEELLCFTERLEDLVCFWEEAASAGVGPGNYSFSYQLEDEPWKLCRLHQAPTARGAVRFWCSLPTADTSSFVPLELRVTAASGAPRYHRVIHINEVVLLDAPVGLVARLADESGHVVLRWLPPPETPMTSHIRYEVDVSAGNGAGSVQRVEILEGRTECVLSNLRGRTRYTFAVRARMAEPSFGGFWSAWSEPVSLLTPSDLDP
The assay can be described thus: MSD ECL multi-spot, Fab 0.74 uM, blank 692.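 Note: blank spot per well as comparator with Hit at signal to blank ratio of 4 or more.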

In assay [5] the target is T5, rHuman Notch-1/Fc Chimera, CF (R&D Systems Cat#3647-TK) (human, UniProt P46531 19-526).
T5 construct: Bought Fc chimera; Fc part of the bought chimera not given
Nature of the assay: MSD ECL multi-spot, Fab 0.74 uM, blank 692.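 Note: blank spot per well as comparator with Hit at signal to blank ratio of 4 or more.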

Assay [6] has as its target T6, rHuman IGF-1 sR (insulin-like growth factor-1 soluble receptor), CF (R&D Systems Cat#391-GR) (human, UniProt P08069 31-932).
T6 construct: Bought soluble receptor; also called IGF-R1
The assay can be described thus: MSD ECL multi-spot, Fab 0.74 uM, blank 692.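 Note: blank spot per well as comparator with Hit at signal to blank ratio of 4 or more.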

Assay [7] concerns the target T7, rHuman ErbB2/Fc Chimera, CF (R&D Systems Cat#1129-ER) (human, UniProt P04626 23-652).
T7 construct: Bought Fc chimera; also called HER2/neu; Fc part of the bought chimera not given
The assay can be described thus: MSD ECL multi-spot, Fab 0.74 uM, blank 692.

Assay [8] has as its target T8, rHuman P-Cadherin/Fc Chimera, CF (R&D Systems Cat#861-PC) (human, UniProt P22223 108-654).
T8 construct: Bought Fc chimera; Fc part of the bought chimera not given
Nature of the assay: MSD ECL multi-spot, Fab 0.74 uM, blank 692.

In assay [9] the target is T9, rHuman EGF R/Fc Chimera, CF (R&D Systems Cat#344-ER) (human, UniProt P00533 25-645).
T9 construct: Bought Fc chimera; Fc part of the bought chimera not given
The assay can be described thus: MSD ECL multi-spot, Fab 0.74 uM, blank 692.

Assay [10] has as its target T10, rHuman Erythropoietin R/Fc Chimera, CF (R&D Systems, Cat#963-ER) (human, UniProt P19235 25-250).
T10 construct: Bought chimera; also called EPO R/Fc; Epo R; Fc part of the bought chimera not given
T10 sequence: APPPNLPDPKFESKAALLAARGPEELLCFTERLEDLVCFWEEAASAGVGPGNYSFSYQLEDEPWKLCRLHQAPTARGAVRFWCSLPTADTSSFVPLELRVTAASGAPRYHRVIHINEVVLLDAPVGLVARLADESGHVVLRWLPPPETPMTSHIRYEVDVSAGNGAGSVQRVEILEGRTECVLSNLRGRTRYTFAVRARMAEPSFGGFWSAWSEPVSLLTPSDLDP
Nature of the assay: ECL (MSD) Fab titration; binding affinity estimated from the 50% binding signal.

The target of assay [11] is T11, rHuman Notch-1/Fc Chimera, CF (R&D Systems Cat#3647-TK) (human, UniProt P46531 19-526).
T11 construct: Bought Fc chimera; Fc part of the bought chimera not given
The assay can be described thus: ECL (MSD multi-spot), Fab 930 nM; blank 1206.

Assay [12] deals with T12, rHuman CD44/Fc Chimera, CF (R&D Systems Cat#3660-CD) (human, UniProt P16070 21-220).
T12 construct: Bought Fc chimera; Fc part of the bought chimera not given
Nature of the assay: ECL (MSD multi-spot), Fab 930 nM; blank 1206.

Assay [13] has as its target T13, rHuman ErbB2/Fc Chimera, CF (R&D Systems Cat#1129-ER) (human, UniProt P04626 23-652).
T13 construct: Bought Fc chimera; also called human epidermal growth factor 2 receptor; HER2/neu; Fc part of the bought chimera not given
Nature of the assay: ECL (MSD multi-spot), Fab 930 nM; blank 1206.

The target of assay [14] is T14, Recombinant Human DLL4 (R&D Systems Cat#1506-D4/CF) (human, UniProt Q9NR61 27-524).
T14 construct: Bought recombinant protein; also called delta-like protein 4
The assay can be described thus: ECL (MSD multi-spot), Fab 930 nM; blank 1206.

The target in assay [15] is T15, rHuman Erythropoietin R/Fc Chimera, CF (R&D Systems Cat#963-ER) (human, UniProt P19235 25-250).
T15 construct: Bought Fc chimera; also called EPO R/Fc; Epo R; Fc part of the bought chimera not given
T15 sequence: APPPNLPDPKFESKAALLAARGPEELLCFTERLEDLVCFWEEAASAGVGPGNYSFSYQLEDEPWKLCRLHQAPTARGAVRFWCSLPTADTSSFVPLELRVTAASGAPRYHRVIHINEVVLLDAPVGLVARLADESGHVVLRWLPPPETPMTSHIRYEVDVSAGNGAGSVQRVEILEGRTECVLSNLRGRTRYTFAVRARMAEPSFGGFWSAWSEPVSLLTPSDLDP
The assay can be described thus: ECL (MSD multi-spot), Fab 930 nM; blank 1206.

Assay [16] has as its target T11, rHuman Notch-1/Fc Chimera, CF (R&D …). The assay can be described thus: ECL (MSD multi-spot), Fab 58.1 nM; blank 225.
The target of assay [17] is T12, rHuman CD44/Fc Chimera, CF (R&D Systems …). The assay can be described thus: ECL (MSD multi-spot), Fab 58.1 nM; blank 225.
Assay [18] deals with T13, rHuman ErbB2/Fc Chimera, CF (R&D …). Nature of the assay: ECL (MSD multi-spot), Fab 58.1 nM; blank 225.
The target in assay [19] is T14, Recombinant Human DLL4 (R&D Systems …). Nature of the assay: ECL (MSD multi-spot), Fab 58.1 nM; blank 225.
Assay [20] deals with T15, rHuman Erythropoietin R/Fc Chimera, CF …. Nature of the assay: ECL (MSD multi-spot), Fab 58.1 nM; blank 225.
Assay [21] deals with T11, rHuman Notch-1/Fc Chimera, CF (R&D …). The assay can be described thus: ECL (MSD multi-spot), Fab 232.5 nM; blank 460.
The target of assay [22] is T12, rHuman CD44/Fc Chimera, CF (R&D Systems …). Nature of the assay: ECL (MSD multi-spot), Fab 232.5 nM; blank 460.
Assay [23] deals with T13, rHuman ErbB2/Fc Chimera, CF (R&D …). The assay can be described thus: ECL (MSD multi-spot), Fab 232.5 nM; blank 460.
Assay [24] concerns the target T14, Recombinant Human DLL4 (R&D Systems …). Nature of the assay: ECL (MSD multi-spot), Fab 232.5 nM; blank 460.
The target of assay [25] is T15, rHuman Erythropoietin R/Fc Chimera, CF …. The assay can be described thus: ECL (MSD multi-spot), Fab 232.5 nM; blank 460.
For assay [26], the target named is T11, rHuman Notch-1/Fc Chimera, CF (R&D …). The assay can be described thus: ECL (MSD multi-spot), Fab 14.5 nM; blank 117.
Assay [27] addresses T12, rHuman CD44/Fc Chimera, CF (R&D Systems …). Nature of the assay: ECL (MSD multi-spot), Fab 14.5 nM; blank 117.
Assay [28] has as its target T13, rHuman ErbB2/Fc Chimera, CF (R&D …). The assay can be described thus: ECL (MSD multi-spot), Fab 14.5 nM; blank 117.
Assay [29] addresses T14, Recombinant Human DLL4 (R&D Systems …). Nature of the assay: ECL (MSD multi-spot), Fab 14.5 nM; blank 117.
For assay [30], the target named is T15, rHuman Erythropoietin R/Fc Chimera, CF …. Nature of the assay: ECL (MSD multi-spot), Fab 14.5 nM; blank 117.
The target of assay [31] is T2, Recombinant Human DLL4 (R&D Systems …). The assay can be described thus: MSD ECL multi-spot, Fab 0.43 uM, blank 879.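 Note: blank spot per well as comparator with Hit at signal to blank ratio of 4 or more.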
Assay [32] addresses T5, rHuman Notch-1/Fc Chimera, CF (R&D …). Nature of the assay: MSD ECL multi-spot, Fab 0.43 uM, blank 879.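 Note: blank spot per well as comparator with Hit at signal to blank ratio of 4 or more.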
The target in assay [33] is T6, rHuman IGF-1 sR (insulin-like growth …). The assay can be described thus: MSD ECL multi-spot, Fab 0.43 uM, blank 879.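 Note: blank spot per well as comparator with Hit at signal to blank ratio of 4 or more.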

In general, Kd refers to the free concentration of one partner at which half of the binding sites on the other are occupied at equilibrium, for simple one-to-one binding.

B1: Fab VH1-46_IGHD3-10*01_IGHJ4*01 & B3_IGKJ1*01 (Fab, V domains shown)
VH: QVQLVQSGAEVKKPGASVKVSCKASGYTFTSYYMHWVRQAPGQGLEWMGIINPSGGSTSYAQKFQGRVTMTRDTSTSTVYMELSSLRSEDTAVYYCAREYYYGSGSYYNDYFDYWGQGTLVTVSS
VL: not shown
notes: Expressed in E. coli as Fab: heavy chain with CH1 plus Flag and His tags from Plasmid A, kappa light chain constant region from Plasmid C; also called Fab No. 5
Turning to B1, the ECL signal amounted to 682 in assay [1]; 1000 in assay [2]; 633 in [3]; 4110 in [4]; 980 in [5]; 593 in [6]. For the same molecule, the results for the ECL signal in [7], in [8] and in assay [9] were 562, 1160 and 652, respectively.

B2: Fab VH1-46_IGHD3-10*01_IGHJ4*01 & B3_IGKJ1*01 (Fab, V domains shown)
VH: QVQLVQSGAEVKKPGASVKVSCKASGYTFTSYYMHWVRQAPGQGLEWMGIINPSGGSTSYAQKFQGRVTMTRDTSTSTVYMELSSLRSEDTAVYYCAREYYYGSGSYYNDYFDYWGQGTLVTVSS
VL: not shown
notes: Fab from E. coli; VH joined to CH1 with Flag and His tags (Plasmid A), VL to kappa CL (Plasmid C)
Regarding B2, the equilibrium dissociation constant (Kd) in assay [10] is ~100 nM.

B3: Fab VH1-46_IGHD6-13*01_IGHJ4*01 & O1_IGKJ1*01 (Fab, V domains shown)
VH: QVQLVQSGAEVKKPGASVKVSCKASGYTFTSYYMHWVRQAPGQGLEWMGIINPSGGSTSYAQKFQGRVTMTRDTSTSTVYMELSSLRSEDTAVYYCAREGYSSSWYDYFDYWGQGTLVTVSS
VL: DIVMTQTPLSLPVTPGEPASISCRSSQSLLDSDDGNTYLDWYLQKPGQSPQLLIYTLSYRASGVPDRFSGSGSGTDFTLKISRVEAEDVGVYYCMQRIEFPSWTFGQGTKVEIK
notes: Tested as a Fab expressed in E. coli: heavy chain with CH1 plus Flag and His tags from Plasmid A, kappa constant region from Plasmid C
Turning to B3, the ECL signal in assay [11] worked out at 2210 ECL signal; in assay [12], 1920 ECL signal; in assay [13], 2220 ECL signal; in assay [14], 8160 ECL signal; in [15], 3010 ECL signal; in [16], 388 ECL signal. The ECL signal stood at 375 ECL signal in assay [17]; 322 ECL signal in assay [18]; 1880 ECL signal in assay [19]; 829 ECL signal in [20]; 778 ECL signal in [21]; 607 ECL signal in [22]. Also, the ECL signal in [23] came to 779 ECL signal; in assay [24], 3590 ECL signal; in assay [25], 1470 ECL signal; in [26], 317 ECL signal; in assay [27], 212 ECL signal; in assay [28], 274 ECL signal. Also, the ECL signal in assay [29] was 1150 ECL signal; in assay [30], 660 ECL signal.

B4: Fab VH1-46_IGHD6-13*01_IGHJ4*01 & B3_IGKJ1*01 (Fab, V domains shown)
VH: QVQLVQSGAEVKKPGASVKVSCKASGYTFTSYYMHWVRQAPGQGLEWMGIINPSGGSTSYAQKFQGRVTMTRDTSTSTVYMELSSLRSEDTAVYYCAREGYSSSWYDYFDYWGQGTLVTVSS
VL: not shown
notes: Expressed in E. coli as Fab: heavy chain with CH1 plus Flag and His tags from Plasmid A, kappa light chain constant region from Plasmid C; also called Fab No. 6
For B4, the ECL signal in assay [31] is 2540; in [32] it was 1790; in assay [33], 1140.

Source of the values: patent publication US20120058906A1 (published 2012).
